# Measurements from patent US20260274959A1 (FUJIAN MEDICAL UNIVERSITY, published 2026).
# B1: Npsc-A8 single-chain antibody (scFv, V domains shown)
# VH: QVQLQESGGGLMQVGGSLRLSCTASGFVFGDYGMNWVRQAPGKGLEWVSLIDTYGASTFYADSVKGRFTISRDNSKQTVFLQMDGLRADDTAMYFCAKPILMFPAFDLWGPGTMVTVSS
# VL: DVVMTQSPSSLSASVGDRVTITCRASQGIRNDLAWYQKKPGKAPKRLIYAASSLQSGVPSRFSGSGYGAEFSLTISSLQPEDFATYFCLHHSQYPWTFGQGTKVDIK
# notes: Soluble scFv from a phage display human natural scFv library; also called Npsc-A8 scFv; not shown: The scFv linker between the two variable domains, the domain order, and the tag detected with the anti-HA-tag antibody
# B2: Npsc-A8 full-length antibody (antibody, V domains shown)
# VH: B1 VH
# VL: DVVMTQSPSSLSASVGDRVTITCRASQGIRNDLAWYQKKPGKAPKRLIYAASSLQSGVPSRFSGSGYGAEFSLTISSLQPEDFATYFCLHHSQYPWTFGQGTKVDIKR
# notes: also called Npsc-A8 antibody
# Columns and labels:
# [1] = biological target: T1, Human B7-H4 protein (Sino Biological, Cat #10738-H08H-100) (human, UniProt Q7Z7D3 25-258); test: ELISA, human B7-H4 protein coated at 2 µg/mL, scFv titrated from 20 to 0.05 µg/mL
# T1 construct: Bought protein; also called hB7-H4 protein
# T1 sequence: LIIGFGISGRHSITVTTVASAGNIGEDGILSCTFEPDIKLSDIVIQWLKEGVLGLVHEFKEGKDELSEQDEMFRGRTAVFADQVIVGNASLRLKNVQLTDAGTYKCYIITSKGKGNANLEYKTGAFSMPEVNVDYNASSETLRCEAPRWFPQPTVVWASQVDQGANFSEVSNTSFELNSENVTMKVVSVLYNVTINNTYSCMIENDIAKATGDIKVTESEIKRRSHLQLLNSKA
# Procedure: 4.2 Measurement of Affinity of the Npsc-A8 scFv [0142] (1) ELISA plate was placed in a clean bench, and activated under UV irradiation for more than 30 mins. Human B7-H4 protein (Sinobiological, a catalog number: 10738-HO8H-100) was coated onto wells of the ELISA plate overnight at 4° C. at 2 μg/mL. The Npsc-A8 single-chain antibody was diluted to 20 μg/mL, 10 μg/mL, 7.5 μg/mL, 5 μg/mL, 2.5 μg/mL, 1 μg/mL, 0.5 μg/mL, 0.25 μg/mL, 0.1 μg/mL, and 0.05 μg/mL, which were respectively added to wells in 100 μL per well. [0143] (2) The remaining steps were conducted according to steps (7) to (14) in Example 3. [0144] (3) The OD450 nm value was measured. A standard curve was plotted, and the EC₅₀ value was obtained.
# [2] = biological target: T2, mouse B7-H4 on cells (MC38-mH4 and E.G7-OVA-mH4 overexpressing) (mouse, UniProt Q7TSP5 25-257); test: flow cytometry on MC38-mH4 cells
# T2 construct: whole, on cells; The species of the overexpressed protein is read from the label mH4
# T2 sequence (looked up): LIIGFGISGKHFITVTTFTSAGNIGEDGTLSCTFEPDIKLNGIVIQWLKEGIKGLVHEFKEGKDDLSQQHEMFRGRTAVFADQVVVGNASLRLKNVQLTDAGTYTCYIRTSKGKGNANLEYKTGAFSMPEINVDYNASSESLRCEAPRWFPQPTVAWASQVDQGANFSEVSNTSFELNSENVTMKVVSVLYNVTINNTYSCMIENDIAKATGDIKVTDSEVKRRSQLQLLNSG
# Procedure: (1) Resuspension of cells: After trypsin digestion, cells were centrifuged, the supernatant was discarded, and the cells were resuspended in PBS containing 1% (v/v) FBS and counted to adjust the concentration to 2×10⁶ cells/mL. [0126] (2) Setting controls: For a blank control, an isotype control, and samples to be tested, 100 μL of the resuspended cells in step (1) was added to each tube, so that each tube contains 2×10⁵ cells. [0127] […] A negative control tube was added with 50 μL of negative single-chain antibody, which was the monoclonal single-chain antibody that was negative in ELISA in Example 3. Tubes to be tested were respectively added with 50 μL of antibody candidates (i.e., Npsc-A8, Npsc-E7, Npsc-G10). The mixture in tubes was fully mixed, and incubated at 4° C. for 30 mins. During the incubation, the tubes were shaken every 10 mins to allow the cells to be fully reacted with the antibodies. [0128] (4) Washing of cells: An appropriate amount of PBS containing 1% (v/v) FBS was added to each tube. The tubes were centrifuged at 2000 rpm for 3 mins, and the supernatant was discarded. [0129] (5) Resuspension of cells: The cells in each tube were resuspended in 100 μL of PBS containing 1% FBS. [0130] […]
# [3] = biological target: T3, mouse B7-H4 IgC-like domain protein (from a laboratory of Fujian Medical University) (mouse, UniProt Q7TSP5 153-241, limits assumed); test: ELISA, protein coated at 2 µg/mL
# T3 construct: domain: IgC-like domain
# T3 sequence (looked up): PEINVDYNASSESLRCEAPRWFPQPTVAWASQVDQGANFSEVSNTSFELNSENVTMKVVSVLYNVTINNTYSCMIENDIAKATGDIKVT
# Procedure: (1) A 96-well ELISA plate was placed in a clean bench, and activated under UV irradiation for more than 30 mins. The human B7-H4 protein (Sinobiological, a catalog number: 10738-HO8H-100), mouse B7-H4 protein (from a laboratory of Fujian Medical University), mouse B7-H4 IgV-like domain protein (from a laboratory of Fujian Medical University), and mouse B7-H4 IgC-like domain protein (from a laboratory of Fujian Medical University) were respectively coated onto wells of the 96-well ELISA plate at a concentration of 2 μg/mL, and incubated at 4° C. overnight. The Npsc-A8 full-length antibody protein obtained in Example 5 was diluted to 10 μg/mL with PBS buffer, and added to wells in 100 μL per well. [0165] (2) The remaining steps were conducted according to steps (6) to (13) in Example 3. 6H3 and 8H4 were used as control antibodies. 6H3 is a mouse anti-human B7-H4 IgC domain antibody, referring to patent application publication number CN 104955475 A. 8H4 is a hamster anti-human B7-H4 IgV domain antibody, referring to DOI: 10.1016/s1074-7613 (03) 00152-3. [0166] (3) OD450 nm value was measured.
# [4] = biological target: T2, mouse B7-H4 on cells (MC38-mH4 and …); test: flow cytometry on MC38-mH4 and E.G7-OVA-mH4 cells; the filing adds that at the same concentration it binds human tumor cells at a higher affinity than mouse tumor cells
# Procedure: A negative control tube was added with 50 μL of negative single-chain antibody, which was the monoclonal single-chain antibody that was negative in ELISA in Example 3. Tubes to be tested were respectively added with 50 μL of antibody candidates (i.e., Npsc-A8, Npsc-E7, Npsc-G10). The mixture in tubes was fully mixed, and incubated at 4° C. for 30 mins. During the incubation, the tubes were shaken every 10 mins to allow the cells to be fully reacted with the antibodies. [0128] (4) Washing of cells: An appropriate amount of PBS containing 1% (v/v) FBS was added to each tube. The tubes were centrifuged at 2000 rpm for 3 mins, and the supernatant was discarded. [0129] (5) Resuspension of cells: The cells in each tube were resuspended in 100 μL of PBS containing 1% FBS. [0130] (6) Incubation with secondary antibody: An appropriate amount of fluorescently labeled secondary antibody was added to the isotype control tube and the test tubes, mixed thoroughly, and incubated at 4° C. in the dark for 30 mins. During the incubation, the tubes were shaken every 10 mins. [0131] (7) Washing of cells: 2 mL PBS was added to each tube, the tubes were centrifuged at 2000 rpm for 3 mins, and the supernatant was discarded. This process was conducted twice. [0132] (8) On-machine testing: Cells in each tube were resuspended in 200 μL PBS. […]
binder,measurement,setting,value
B1,EC50,[1],2.02 µg/mL
same,binding result,[2],binds
B2,binding result,[3],no binding (tested: 10 µg/mL)
same,binding result,[4],binds
